{"source": "paper PMC8239432", "about": "“Cross-Reactive SARS-CoV-2 Neutralizing Antibodies From Deep Mining of Early Patient Responses” (Frontiers in Immunology, 2021)", "details_in_all_cases": "both partners purified", "key": {"[1]": {"target": "T1, SARS-CoV-2 RBD-rCD4-Avi-His (SARS-CoV-2 (reference sequence), UniProt P0DTC2)", "T1 construct": "also called RBD-rCD4-His", "experiment": "SPR"}, "[2]": {"target": "T2, SARS-CoV-2 RBD-rCD4-Avi-His (SARS-CoV-2, UniProt P0DTC2)", "T2 construct": "also called RBD-rCD4-His; monomeric RBD; source: Expi293F, purified (Nickel-NTA agarose)", "experiment": "SPR"}, "[3]": {"target": "T3, SARS CoV-2 RBD (Acro BioSystems, SPDC52H3) (SARS-CoV-2 (reference sequence), UniProt P0DTC2)", "T3 construct": "source: bought: Acro BioSystems", "experiment": "BLI"}, "SARS-CoV-1 RBD": {"target": "T4, SARS-CoV-1 RBD (SARS-CoV-1 (SARS-CoV); isolate not …, UniProt P59594)", "T4 construct": "also called RBD subdomain of the SARS-CoV-1 spike protein; source: Expi293F, purified (Nickel-NTA agarose)", "experiment": "binding assay based on time resolved fluorescence (TRF)"}, "[4]": {"target": "T5, MERS-CoV S1 with a His tag (MERS-CoV, isolate EMC/2012 (from …, UniProt K0BRG7))", "T5 construct": "source: bought: Sino Biological", "experiment": "binding assay based on time resolved fluorescence (TRF)"}}, "data": [{"binder": "ION_360 IgG1 (antibody, V domains shown, source: ExpiCHO or Expi293, purified (protein A, SEC)) VH: EVQLVQSGGGLVKPGGSLRLSCAASGITVSSNYMSWVRQAPGKGLEWVSVIYSGGSTYYADSVKGRFTISRDNSKNTLYLQMNSLRAEDTAVYYCARGEGGSIVGVTSDYWGQGTLVTVSS VL: DIQMTQSPSSLSASVGDRVTITCRASQSISRYLNWYQQKPGKAPKLLIYAASSLQSGVPSRFSGSGSETEFTLTISSLHPDDFATYYCQQSYSTLPYTFGQGTKVEIK", "values": [{"measurement": "koff", "setting": "[1]", "value": 0.000279, "unit": "s⁻¹"}, {"measurement": "kon", "setting": "[1]", "value": 188000, "unit": "M⁻¹ s⁻¹"}]}, {"binder": "ION_360 IgG1 (antibody, V domains shown) VH: EVQLVQSGGGLVKPGGSLRLSCAASGITVSSNYMSWVRQAPGKGLEWVSVIYSGGSTYYADSVKGRFTISRDNSKNTLYLQMNSLRAEDTAVYYCARGEGGSIVGVTSDYWGQGTLVTVSS VL: DIQMTQSPSSLSASVGDRVTITCRASQSISRYLNWYQQKPGKAPKLLIYAASSLQSGVPSRFSGSGSETEFTLTISSLHPDDFATYYCQQSYSTLPYTFGQGTKVEIK", "values": [{"measurement": "Kd", "setting": "[2]", "value": 1.5, "unit": "nM"}]}, {"binder": "ION_300 IgG1 (antibody, V domains shown, source: ExpiCHO or Expi293, purified (protein A, SEC)) VH: QVQLVQSGAEVKKPGESLKISCKGSGYSFTSYWIGWVRQMPGKGLEWMGIIYPGDSDTRYSPSFQGQVTISADKSISTAYLQWSSLKASDTAMYYCARHPSPYYYGSGSYSGGFDYWGQGTLVTVSS VL: DIVMTQSPGTLSLSPGERATLSCRASQSVSSSYLAWYQQKPGQAPRLLIYGASTRATGIPARFSGSGSGTEFTLTISSLQSEDFAVYYCQQYDNWPLMHTFGQGTKLEIK", "values": [{"measurement": "Kd", "setting": "[1]", "value": 3.4, "unit": "nM"}, {"measurement": "koff", "setting": "[1]", "value": 0.000775, "unit": "s⁻¹"}, {"measurement": "kon", "setting": "[1]", "value": 252000, "unit": "M⁻¹ s⁻¹"}]}, {"binder": "ION_300 IgG1 (antibody, V domains shown) VH: QVQLVQSGAEVKKPGESLKISCKGSGYSFTSYWIGWVRQMPGKGLEWMGIIYPGDSDTRYSPSFQGQVTISADKSISTAYLQWSSLKASDTAMYYCARHPSPYYYGSGSYSGGFDYWGQGTLVTVSS VL: DIVMTQSPGTLSLSPGERATLSCRASQSVSSSYLAWYQQKPGQAPRLLIYGASTRATGIPARFSGSGSGTEFTLTISSLQSEDFAVYYCQQYDNWPLMHTFGQGTKLEIK", "values": [{"measurement": "binding result", "setting": "[3]", "value": "binds"}, {"measurement": "binding result", "setting": "SARS-CoV-1 RBD", "value": "binds"}, {"measurement": "binding result", "setting": "[4]", "value": "no binding"}]}]}
